Numbering of substitutions follows the chain as printed.

The target in test [1] is T1, human LAG-3 protein with hFc tag (hLAG-3-hFc protein) (human, UniProt P18627 23-450).
T1 construct: also called immunogen 1; LAG-3 extracellular domain protein; not shown: human IgG Fc fragment (hFc) of the pCpC vector
T1 sequence: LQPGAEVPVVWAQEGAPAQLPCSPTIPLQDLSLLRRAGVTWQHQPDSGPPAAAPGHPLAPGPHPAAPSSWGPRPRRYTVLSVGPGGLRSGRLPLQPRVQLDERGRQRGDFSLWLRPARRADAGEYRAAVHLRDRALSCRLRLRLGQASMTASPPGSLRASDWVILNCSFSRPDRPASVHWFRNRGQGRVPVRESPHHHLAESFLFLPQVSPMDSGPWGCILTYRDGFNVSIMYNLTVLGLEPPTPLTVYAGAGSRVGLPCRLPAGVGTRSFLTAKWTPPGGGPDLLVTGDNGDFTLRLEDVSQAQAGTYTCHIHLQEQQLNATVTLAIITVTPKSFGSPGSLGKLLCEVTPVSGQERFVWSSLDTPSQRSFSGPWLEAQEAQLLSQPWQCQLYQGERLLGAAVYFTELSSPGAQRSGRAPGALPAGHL
In words: FACS, blocks LAG-3-hFc binding to MHC II on Raji; 0.274 nM. As for the experimental part:
The FACS reaction plate incubating the Raji cells was centrifuged to discard the supernatant. The above mixture was added as 100 μl per well to Raji cells and incubated on ice for 1-2 hours. The plate was washed twice with blocking solution (PBS, 2% fetal bovine serum) by centrifugation, added with 100 microliters of fluorescent (Alexa 488)-labeled secondary antibodies per well, and incubated on ice for 1.0 hours. The plate was washed 2-3 times by centrifugation with blocking solution (PBS, 2% fetal bovine serum), added with 100 microliters of PBS per well to suspend cells, and detected using FACS (FACS Calibur, BD) and the results were analyzed. Wherein, the IgG control was murine IgG, and the data in the table is the inhibition rate (%).
(In general: Flow cytometry measures light scatter and fluorescence of single cells or particles in a stream.)

Test [2] has as its target T1, human LAG-3 protein with hFc tag …. In words: ELISA, hLAG-3-hFc coated; 0.0007 nM. As for the experimental part: The plate was sealed with plastic film and incubated overnight at 4° C. The plate was washed 2 times with the plate washing solution (PBS+0.01% Tween20) on the next day, and added with the blocking solution (PBS+0.01% Tween20+1% BSA) and blocked at room temperature for 1-2 hours. The blocking solution was poured out, and the plate was added with 50-100 μl of the antibody sample to be tested to each well, incubated at 37° C. for 1-2 hours, and washed 2-3 times with a plate washing solution (PBS+0.01% Tween20). HRP (horseradish peroxidase) labeled secondary antibody was added, and the plate was incubated at 37° C. for 1-2 hours, and washed 2-3 times with a plate washing solution (PBS+0.01% Tween20). 100 μl of TMB substrate was added to each well. After incubated at room temperature for 15-30 minutes, the plate was added with 100 μl of stop solution (1.0N HCl) to each well.
On the technique in general: In an ELISA, binding on a coated surface is turned into a signal by an enzyme label.

Test [3] addresses T2, human LAG-3 on cells (HEK293-hLAG-3 stable cell line) (human, UniProt P18627 23-525).
T2 sequence: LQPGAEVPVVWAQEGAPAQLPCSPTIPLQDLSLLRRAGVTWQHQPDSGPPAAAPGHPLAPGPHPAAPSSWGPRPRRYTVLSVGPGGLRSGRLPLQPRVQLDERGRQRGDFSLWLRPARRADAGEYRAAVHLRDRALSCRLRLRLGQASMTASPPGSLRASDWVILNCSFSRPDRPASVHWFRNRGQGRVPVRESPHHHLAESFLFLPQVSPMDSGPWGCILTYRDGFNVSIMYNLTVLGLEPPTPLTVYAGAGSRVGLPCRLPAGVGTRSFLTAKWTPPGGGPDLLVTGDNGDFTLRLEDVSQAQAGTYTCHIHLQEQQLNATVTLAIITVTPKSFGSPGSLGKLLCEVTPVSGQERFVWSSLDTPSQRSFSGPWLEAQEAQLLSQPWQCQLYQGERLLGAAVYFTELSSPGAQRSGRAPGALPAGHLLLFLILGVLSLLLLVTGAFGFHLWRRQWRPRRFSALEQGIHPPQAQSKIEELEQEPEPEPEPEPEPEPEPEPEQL
In words: FACS, HEK293-hLAG-3, antibody 200.000 nM. The text has this:
(§1) The pIRES plasmid with the monkey-derived full-length gene was transfected into the HEK293 cell line to construct a HEK293 stable cell line containing monkey LAG-3 (herein referred to as HEK293-cLAG-3 stable cell line). The HEK293-hLAG-3 stable cell line and HEK293-cLAG-3 stable cell line were expanded in a T-75 cell culture flask to a 90% confluence. The medium was aspirated, and the cells were washed with HBSS (Hanks' Balanced Salt Solution) 1-2 times, then treated with a enzyme-free cell dissociation fluid (Versene solution: Life technology) and the cells were collected. The cells were washed with HBSS buffer for 1-2 times. After counted, the cells were diluted with HBSS to 1-2×10⁶ cells per ml, added with 1% goat serum blocking solution, incubated on ice for 20-30 minutes, and then washed with HBSS for 2 times by centrifugation. The collected cells were suspended in the FACS buffer (HBSS+1% BSA) to 2×10⁶ cells/ml, added as 100 microliters per well to a 96-well FACS reaction plate, added with 100 microliters per well of the antibody sample to be tested, incubated on ice for 1-2 hours. The plate was washed twice with the FACS buffer by centrifugation, added with 100 microliters of fluorescent (Alexa 488)-labeled secondary antibodies per well, and incubated on ice for 0.5-1.0 hours. The plate was washed 2-3 times with FACS buffer by centrifugation, added with 100 μl fixative solution (4% Paraformaldehyde) per well to suspend the cells. 5-10 minutes later, it was washed 1-2 times with FACS buffer by centrifugation. The cells were suspended with 100 microliters of FACS buffer, FACS (FACSCalibur, BD) was used for detection and the results were analyzed.

The target of test [4] is T2, human LAG-3 on cells (HEK293-hLAG-3 …). In words: FACS, HEK293-hLAG-3, antibody 0.320 nM.
Text: as §1

For test [5] the target is unchanged. In words: cell-based or functional assay.

B1: 405B8H3 (mouse antibody purified from hybridoma) (antibody, V domains shown)
VH: QVQLQQSGAELVRPGASVTLSCKASGYTFTDYEMHWVKQTPVHGLEWIGATDPETGNSAYNQKFKGKAIMTADKSSSTAYMELRSLTSEDSAVYYCISTGWNDWGQGTSLTVSS
VL: DIKMTQSPSSMYASLGERVTITCKASQDINSYLSWFQQKPGKSPKTLIYRADRLLDGVPSRFSGSGSGQDYSLTISSLEYGDMGIYYCLQYDEFPYTFGGGTKLEIK
notes: also called mAb103-405B8H3; 405B81-13
Regarding B1, in test [1], the “Inhibition rate (%)” value worked out at 2.1%.

B2: 405B8H3 (LAG-3 mouse-human chimeric antibody) (antibody, V domains shown)
VH: B1 VH
VL: B1 VL
notes: also called mouse-human chimeric antibody 405B8H3
Regarding B2, in test [2], the OD450 was determined as 0.19 OD450.

B3: 105F1E10 (mouse antibody purified from hybridoma) (antibody, V domains shown)
VH: EVQLQQSGPELVKPGASVKMSCRASGYTFTDFKMHWMKQSHGKSLEWIGYIAPNNGGTAYNQKFRGKATLTVNESSNTAYMELRSLTSEDSAVYYCVDWDDVDYWGQGTTLTVSS
VL: B1 VL with P40S, D52N, L55V, G81E, D92V, Y96L, G100A, I106L
notes: also called mAb009-105F1E10
Turning to B3, the “Inhibition rate (%)” value in test [1] is -8.3%.

B4: 105F1E10 mouse-human chimeric antibody (antibody, V domains shown)
VH: B3 VH
VL: B1 VL with P40S, D52N, L55V, G81E, D92V, Y96L, G100A, I106L
notes: also called mAb009-105F1E10
As to B4, in test [3], the Mean fluorescence intensity was 175. In test [4], this molecule registered a Mean fluorescence intensity of 10.7. In addition, in test [5], the “IL-2 production, SEB-dependent PBMC stimulation test, 0.0032 ug/ml, N = 1” value turned out to be 2340 pg/mL; the “IL-2 production, SEB-dependent PBMC stimulation test, 0.0032 ug/ml, N = 2” value came to 1840 pg/mL; the “IL-2 production, SEB-dependent PBMC stimulation test, 0.016 ug/ml, N = 1” value was 1720 pg/mL; the “IL-2 production, SEB-dependent PBMC stimulation test, 0.016 ug/ml, N = 2” value amounted to 1520 pg/mL. Moreover, in test [5], the “IL-2 production, SEB-dependent PBMC stimulation test, 0.08 ug/ml, N = 1” value was determined as 2130 pg/mL; the “IL-2 production, SEB-dependent PBMC stimulation test, 0.08 ug/ml, N = 2” value turned out to be 1770 pg/mL; the “IL-2 production, SEB-dependent PBMC stimulation test, 0.4 ug/ml, N = 1” value turned out to be 2550 pg/mL; the “IL-2 production, SEB-dependent PBMC stimulation test, 0.4 ug/ml, N = 2” value is 2570 pg/mL. Besides, in test [5], the “IL-2 production, SEB-dependent PBMC stimulation test, 2 ug/ml, N = 1” value worked out at 3970 pg/mL; the “IL-2 production, SEB-dependent PBMC stimulation test, 2 ug/ml, N = 2” value worked out at 3660 pg/mL; the “IL-2 production, SEB-dependent PBMC stimulation test, 10 ug/ml, N = 1” value was determined as 3740 pg/mL; the “IL-2 production, SEB-dependent PBMC stimulation test, 10 ug/ml, N = 2” value was determined as 3650 pg/mL.

B5: 105F1E10 (LAG-3 mouse-human chimeric antibody) (antibody, V domains shown)
VH: B3 VH
VL: B1 VL with P40S, D52N, L55V, G81E, D92V, Y96L, G100A, I106L
In turn, B5 returned an OD450 in test [2] of 0.2 OD450.

B6: 409B11E12 (mouse antibody purified from hybridoma) (antibody, V domains shown)
VH: B1 VH with P41T, G56S, N57Y, M70L, S98A
VL: B1 VL with I2L, D52N, G81E
notes: also called mAb104-409B11E12
On to B6, for which the “Inhibition rate (%)” value in test [1] is -3.9%.

B7: 409B11E12 (LAG-3 mouse-human chimeric antibody) (antibody, V domains shown)
VH: B1 VH with P41T, G56S, N57Y, M70L, S98A
VL: B1 VL with I2L, D52N, G81E
Regarding B7, the OD450 in test [2] worked out at 0.2 OD450.

B8: 409D4E10 (LAG-3 mouse-human chimeric antibody) (antibody, V domains shown)
VH: B1 VH with Y27N, G56D, S58T, M70L, A72T, S98T, T99S
VL: B1 VL with D52N, G81E, D92N
B8: in test [2], the OD450 came to 0.16 OD450.

B9: 409D4E10 (mouse antibody purified from hybridoma) (antibody, V domains shown)
VH: B1 VH with Y27N, G56D, S58T, M70L, A72T, S98T, T99S
VL: B1 VL with D52N, G81E, D92N
notes: also called mAb112-409D4E10
On to B9, for which, in test [1], the “Inhibition rate (%)” value was -7.5%.

B10: 556F6B8 mouse-human chimeric antibody (antibody, V domains shown)
VH: RVQLKQSGPGLVQPSQSLSITCTVSGFSLIKYGVHWVRQSPGEGLEWLGVIWRGGITDYNAAFMSRLSITKDNSKSQVFFKMNSLQADDTAIYYCAKWDGPLAMDYWGQGTSVTVSS
VL: DIVMTQSHKFLSTSVGDRVSITCKASQDVGTTVAWYQQKPGQSPKLLIYWASTRHTGVPDRFTGSGSGTDFTLTISNVQSEDLADYFCQQYSSYPYTFGGGTKLEIK
notes: also called mAb123-556F6B8; 556F8B8
For the molecule B10, the Mean fluorescence intensity in test [3] came to 125. The molecule further returned a Mean fluorescence intensity in test [4] of 14.3. Also, in test [5], the “IL-2 production, SEB-dependent PBMC stimulation test, 0.0032 ug/ml, N = 1” value came out at 1780 pg/mL; the “IL-2 production, SEB-dependent PBMC stimulation test, 0.0032 ug/ml, N = 2” value worked out at 1910 pg/mL; the “IL-2 production, SEB-dependent PBMC stimulation test, 0.016 ug/ml, N = 1” value is 1430 pg/mL; the “IL-2 production, SEB-dependent PBMC stimulation test, 0.016 ug/ml, N = 2” value amounted to 2010 pg/mL. Besides, in test [5], the “IL-2 production, SEB-dependent PBMC stimulation test, 0.08 ug/ml, N = 1” value came out at 1780 pg/mL; the “IL-2 production, SEB-dependent PBMC stimulation test, 0.08 ug/ml, N = 2” value stood at 1980 pg/mL; the “IL-2 production, SEB-dependent PBMC stimulation test, 0.4 ug/ml, N = 1” value stood at 2570 pg/mL; the “IL-2 production, SEB-dependent PBMC stimulation test, 0.4 ug/ml, N = 2” value came out at 2810 pg/mL. Moreover, in test [5], the “IL-2 production, SEB-dependent PBMC stimulation test, 2 ug/ml, N = 1” value was found to be 3800 pg/mL; the “IL-2 production, SEB-dependent PBMC stimulation test, 2 ug/ml, N = 2” value was determined as 4010 pg/mL; the “IL-2 production, SEB-dependent PBMC stimulation test, 10 ug/ml, N = 1” value amounted to 2610 pg/mL; the “IL-2 production, SEB-dependent PBMC stimulation test, 10 ug/ml, N = 2” value amounted to 3260 pg/mL.

B11: 556F6B8 (mouse antibody purified from hybridoma) (antibody, V domains shown)
VH: B10 VH
VL: B10 VL
notes: also called mAb123-556F6B8
Consider B11, for which, in test [1], the “Inhibition rate (%)” value was found to be 6%.

B12: 556F6B8 (LAG-3 mouse-human chimeric antibody) (antibody, V domains shown)
VH: B10 VH
VL: B10 VL
notes: also called 556F8B8
Take B12: in test [2], the OD450 is 0.17 OD450.

Source of the values: patent US20210155689A1 (SHANGHAI PHARMAEXPLORER, published 2021).
